# From patent US20160355583A1 (Novartis, published 2016)
# Read-outs that look alike come from different tables or passages of the source.
# T1: human BMP9 (BMP9/Growth Differentiation Factor 2 [Homo sapiens], NP_057288) (human, UniProt Q9UK05 320-429, limits assumed)
# T1 sequence: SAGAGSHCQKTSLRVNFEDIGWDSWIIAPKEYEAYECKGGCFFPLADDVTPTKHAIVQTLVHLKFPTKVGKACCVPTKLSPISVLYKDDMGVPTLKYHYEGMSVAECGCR
# T2: cyno BMP9 (cyno, UniProt G7PEU8 320-429)
# T2 sequence: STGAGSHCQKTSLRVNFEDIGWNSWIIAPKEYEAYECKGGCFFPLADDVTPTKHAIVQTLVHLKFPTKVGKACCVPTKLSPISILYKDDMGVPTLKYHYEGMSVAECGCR
# T3: mouse BMP9 (mouse, UniProt Q9WV56 319-428, limits assumed)
# T3 construct: also called murine BMP9; mouse BMP9 (iPROT101715)
# T3 sequence (looked up): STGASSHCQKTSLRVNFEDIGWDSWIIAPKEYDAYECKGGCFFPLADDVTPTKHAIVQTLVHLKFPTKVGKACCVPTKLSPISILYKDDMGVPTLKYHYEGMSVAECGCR
# T4: human BMP10 (Bone Morphogenetic Protein 10 Preproprotein [Homo sapiens], NP_055297) (human, UniProt O95393 317-424)
# T4 construct: Bought recombinant protein; also called huBMP10; rhBMP10 (R&D Cat#2926-BP-025)
# T4 sequence: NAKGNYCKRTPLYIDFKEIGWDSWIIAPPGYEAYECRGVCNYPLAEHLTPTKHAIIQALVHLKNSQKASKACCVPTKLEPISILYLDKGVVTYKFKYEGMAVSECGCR
# T5: rat BMP9 (rat, UniProt M0RB87 320-430, The mature growth factor is a disulfide-linked homodimer. One copy of the polypeptide is given.)
# T5 construct: also called rat BMP9 (R&D Systems 5566-BP); rat BMP9 condition medium
# T5 sequence: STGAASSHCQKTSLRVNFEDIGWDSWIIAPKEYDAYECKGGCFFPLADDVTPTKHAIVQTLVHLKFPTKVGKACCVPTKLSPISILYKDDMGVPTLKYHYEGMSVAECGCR
# T6: human BMP7 (human, UniProt P18075 293-431)
# T6 construct: Bought recombinant protein; also called huBMP7; rhBMP7 (R&D Cat#354-BP-010)
# T6 sequence (looked up): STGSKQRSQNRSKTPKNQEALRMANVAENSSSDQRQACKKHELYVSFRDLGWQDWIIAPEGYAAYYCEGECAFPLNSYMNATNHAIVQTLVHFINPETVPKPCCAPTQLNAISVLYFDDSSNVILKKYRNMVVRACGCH
# Assays:
# [1] = target: T1, human BMP9 (BMP9/Growth Differentiation …); assay: cell-based or functional assay
# [2] = target: T1, human BMP9 (BMP9/Growth Differentiation …); assay: MSD-SET solution equilibrium titration
# Description: (§1) The amount of free Fab binding sites was determined by transferring the mixtures on antigen-coated plates and a brief incubation. The free Fab was consequently bound to the plate and detected with a detection antibody after a washing step for removing Fab-antigen complexes. The resulting signal was plotted versus the antigen concentration; and the KD was accurately determined by non-linear curve fitting.
# (§2) A 22 serial 2ⁿ dilution of the antigens (human BMP9 (GD-43-KS00); cyno BMP9, rat BMP9 (R&D Systems 5566-BP) or mouse BMP9 (iPROT101715)) was prepared in incubation buffer (PBS (Teknova Cat#P0195) containing 0.5% BSA (Sigma Cat#A7906-500G) and 0.02% Tween-20 (VWR Cat#437082Q)). A constant concentration of the Fab was added. A volume of 60 ul of each antigen:Fab mix was distributed in duplicates to a 384-well polypropylene microtiter plate (PP MTP, Greiner Cat#781280). Incubation buffer served as negative control and a sample containing no antigen served as positive control (Bₘₐₓ). The plate was sealed and incubated overnight (O/N) at room temperature (RT).
# (§3) A 384-well standard MSD array plate (Meso Scale Discovery Cat#L21XA) was coated with 30 ul/well human BMP9 diluted in PBS as capture agent and incubated O/N at 4° C. After washing for 3 times with 70 ul/well washing buffer (TBS (Teknova Cat#T1680) with 0.05% Tween-20), the plate was blocked with 50 ul/well blocking buffer (PBS with 5% BSA) for 1 hour at RT. After washing, a volume of 30 ul/well of the antigen:Fab mix was transferred from the PP MTP to the coated MSD plate and incubated for 20 min at RT. After an additional wash step, 30 ul of detection antibody (Goat anti-human Fab specific (Jackson Immuno Research Cat#109-005-097) conjugated with MSD SULFO-TAG NHS Ester (Meso Scale Discovery Cat#R91AN-1)) diluted 1:1000 in incubation buffer was added to each well and incubated for 30 min at RT. The MSD plate was washed and 35 ul/well of read buffer (MSD Read Buffer T 4×, Meso Scale Discovery Cat#R92TC-1) was added and then incubated for 5 min at RT. ECL signals were measured with the MSD SECTOR Imager 6000. The data was evaluated with XLfit (IDBS) software following a 1:1 fit model for Fab (according to Piehler et al., 1997).
# cyno BMP9 = target: T2, cyno BMP9; assay: MSD-SET solution equilibrium titration
# Description: as §1, §2, §3
# mouse BMP9 = target: T3, mouse BMP9; assay: MSD-SET solution equilibrium titration
# Description: as §1, §2, §3
# [3] = target: T1, human BMP9 (BMP9/Growth Differentiation …); assay: blocking ELISA; competitor Type I BMP receptor (AlkI)
# Description: (§4) Blocking ELISA was used to identify positive clones that can inhibit the interactions between BMP9 and its receptors. Four different recombinant BMP9 receptors can be used: human Alk1-Fc (R&D system, 370-AL-100); human BMPRII-Fc (R&D system, 811-BR-100); human ActRIIA-Fc (R&D system, 340-R2-100); human ActRIIB-Fc (R&D system).
# (§5) The blocking activity of antibody sample to specific ligand/receptor combination was measured by ELISA. In brief, 50 ul of receptor at a concentration of 1 ug/ml in coating buffer (PBS) was added into 96 well ELISA plates at 4° C. overnight, followed by washing with PBST one time. ELISA plates were blocked with 200 ul blocking buffer (PBST containing 1% BSA) in each well and then incubated at room temperature (RT) for 1 hour, followed by washing with PBST for 3 times. Diluted antibody sample was mixed with biotinylated human BMP9 (bio-hBMP9 of 1 ug/ml) and incubated at RT for 45 minutes. The mixture of antibody and bio-hBMP9 was added to the plates of 50 ul/well and then incubated at RT for 30 minutes, followed by washing with PBST for 3 times. 50 ul Poly-HRP Streptavidin (Thermofisher, 21140) was added to each well of the plates and incubated at RT for 30 minutes, followed by washing with PBST for 5 times. Finally, 50 ul of TMB reagent (Invitrogen 002023) and 50 ul of 1N HCl (Invitrogen SS01100) were added to each well to stop the reaction. Absorbance of each well was read at 450 nm to get readout OD₄₅₀.
# human BMP2 [4] = target: T7, human BMP2 (human, UniProt P12643 283-396); assay: table caption: MSD-SET; Example 6 describes Biacore SPR for BMP2, BMP7, BMP10
# T7 construct: Bought recombinant protein; also called huBMP2; rhBMP2 (R&D Cat#355-BM-010)
# [5] = target: T4, human BMP10 (Bone Morphogenetic Protein …); assay: Table 7 (caption: MSD-SET; Example 6 describes Biacore SPR on immobilised rhBMP10, Fab 31.25-1000 nM)
# [6] = target: T1, human BMP9 (BMP9/Growth Differentiation …); assay: Biacore SPR, bivalent model, ka1
# [7] = target: T1, human BMP9 (BMP9/Growth Differentiation …); assay: Biacore SPR, bivalent model, kd1
# [8] = target: T1, human BMP9 (BMP9/Growth Differentiation …); assay: Biacore SPR, bivalent model, KD from ka1 and kd1
# [9] = target: T1, human BMP9 (BMP9/Growth Differentiation …); assay: cell-based or functional assay; remark: listed apart in the source
# rat BMP9 = target: T5, rat BMP9; assay: MSD-SET solution equilibrium titration
# Description: as §1, §2, §3
# human BMP2 [10] = target: T7, human BMP2; assay: table caption: MSD-SET; Example 6 describes Biacore SPR for BMP2, BMP7, BMP10; remark: listed apart in the source
# human BMP7 [11] = target: T6, human BMP7; assay: as above
# [12] = target: T4, human BMP10 (Bone Morphogenetic Protein …); assay: Table 5 (caption: MSD-SET; Example 6 describes Biacore SPR on immobilised rhBMP10, Fab 31.25-1000 nM)
# [13] = target: T1, human BMP9 (BMP9/Growth Differentiation …); assay: blocking ELISA; competitor Type II BMP receptor (ActRIIB, BMPRII)
# Description: as §4, §5
# human BMP2 [14] = target: T7, human BMP2; assay: Table 5 (caption: MSD-SET; Example 6 describes Biacore SPR on immobilised rhBMP2, Fab 31.25-1000 nM)
# human BMP7 [15] = target: T6, human BMP7; assay: Table 5 (caption: MSD-SET; Example 6 describes Biacore SPR on immobilised rhBMP7, Fab 31.25-1000 nM)
# T7 sequence (P12643 283-396 limits assumed): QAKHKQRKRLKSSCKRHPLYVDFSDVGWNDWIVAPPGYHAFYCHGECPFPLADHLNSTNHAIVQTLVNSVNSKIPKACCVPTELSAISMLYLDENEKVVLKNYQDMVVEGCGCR
Binder,Kd [2],Kd (cyno BMP9),Kd (mouse BMP9),IC50 [3],kon [6],koff [7],Kd [8],RGA IC50 [pM] (HEK293T BRE-Luc reporter gene assay) [9],Kd (rat BMP9),binding result [12],also measured
"Antibody BMP9-6: MOR022965 (antibody, human IgG1, kappa, V domains shown, Fully human, phage display) VH: QVQLVQSGAEVKKPGSSVKVSCKASGGTFSSYAISWVRQAPGQGLEWMGHIIPHWGHARYAQKFQGRVTITADESTSTAYMELSSLRSEDTAVYYCARSASSLPHFHWFDYWGQGTLVTVSS VL: DIQMTQSPSSLSASVGDRVTITCRASQDINNYLNWYQQKPGKAPKLLIYAASRLQSGVPSRFSGSGSGTDFTLTISSLQPEDFATYYCQQRDTTPWTFGQGTKVEIKR",0.032 nM,0.023 nM,0.069 nM,≤ 1 nM,,,,,,,RGA IC50 [pM] (HEK293T BRE-Luc reporter gene assay) [1]: 180 pM; Kd (human BMP2 [4]): 3110 nM; binding result [5]: no binding
"Mouse Antibody 2B11G2 (antibody, V domains shown, Mouse hybridoma monoclonal antibody; also called B211G2) VH: QAYLQQSGAELVRPGASVKMSCKASGYTFPSYNMHWVKQTPRQGLEWIGVIYPGNGVTSYSQKFKDKATLTVDKSSSTAYMQLSSLTSEDSAVYFCAKDDYFYGGSYAMDYWGQGTSVTVSS VL: DIVLTQSPATLSVTPGDSVSLSCRASQSISNNLHWYQQISHESPRLLIKYASQSISGIPSRFSGSGSGTDFTLSINSMETEDFGMFFCQQSHSWPYTFGGGTKLEIK",,,,,2510 M⁻¹ s⁻¹,0.000166 s⁻¹,66.2 nM,,,,
"Antibody BMP9-4: AM4405 (antibody, human IgG1, kappa, V domains shown, also called 2B11G2-AM4405) VH: QVQLVQSGAEVKKPGASVKVSCKASGYTFRSYNMHWVRQAPGQGLEWMGLIYPGNAVTSYSQKFKDRVTMTVDKSTSTAYMELSSLRSEDTAVYYCAKDDYFRGGSYAMDYWGQGTTVTVSS VL: EIVLTQSPDFQSVTPKEKVTITCRASQSIRNNLHWYQQKPDQSPKLLIKYASQSIRGVPSRFSGSGSGTDFTLTINSLEAEDAATYYCQQSHSWPYTFGGGTKVEIKR",0.018 nM,0.048 nM,0.008 nM,≤ 1 nM,,,,90 pM,0.013 nM,no binding,Kd (human BMP2 [10]): 177 nM; Kd (human BMP7 [11]): 9170 nM
"Mouse Antibody 4E10D7 (antibody, V domains shown, Mouse hybridoma monoclonal antibody; also called parental 4E10D7 antibody) VH: QVQLQQPGAEAVKPGASVKLSCKASGYTFTRYWMHWVKQRPGQGLEWIGEINPSNGGTNYNEKFKSKATLTVDKSSSTAYMQLSSLTSEDFAVYYCTMGSNYGGFVYWGQGTLVTVSA VL: not shown",,,,,281000 M⁻¹ s⁻¹,0.000617 s⁻¹,2.2 nM,,,,
"Antibody BMP9-1: AM0100 (antibody, human IgG1, kappa, V domains shown, also called 4E10D7-AM0100) VH: QVQLVQSGAEVKKPGASVKVSCKASGYTFTRYWMHWVRQAPGQGLEWMGEINPSQGGTNYNEKFKSRVTMTVDKSISTAYMELSRLRSDDTAVYYCAIGSNYGGLVYWGQGTLVTVSS VL: EIVLTQSPATLSLSPGERATLSCRASESLDNYGISFMNWFQQKPGQAPRFLIYAASNQGSGIPARFSGSGSGTDFTLTISSLQPEDTAVYFCQQSKEVPRTFGGGTKVEIKR",0.182 nM,0.128 nM,0.073 nM,,,,,83 pM,0.094 nM,no binding,IC50 [13]: ≤ 1 nM; binding result (human BMP2 [14]): no binding; binding result (human BMP7 [15]): no binding
